Assay results taken from publication PMC4769845, “Structures of EccB1 and EccD1 from the core complex of the mycobacterial ESX-1 type VII secretion system” (BMC Structural Biology, 2016).

How the values were obtained:
[1] = biological target: the molecule itself; assay: crystal structure; cyto-EccD1mt alone; sitting drop, 0.1 M Tris-HCl pH 8.5, 0.2 M Mg chloride, 30 % PEG4000; two molecules in the asymmetric unit; 1.88 Å
[2] = biological target: the molecule itself; assay: crystal structure; MBP-cyto-EccD1mt fusion, maltose-bound; sitting drop, 0.1 M HEPES pH 7.5, 1.4 M Na citrate; two molecules in the asymmetric unit; 2.20 Å

Protein | binding result [1] | binding result [2]
cytoplasmic domain of EccD1 from M. tuberculosis (cyto-EccD1mt) (domain or fragment, also called Rv3877; not shown: His6, N-terminal, cleaved) ATTRVTILTGRRMTDLVLPAAVPMETYIDDTVAVLSEVLEDTPADVLGGFDFTAQGVWAFARPGSPPLKLDQSLDDAGVVDGSLLTLVS | binds | –
cyto-EccD1mt fused to maltose binding protein (MBP-cyto-EccD1mt) (domain or fragment, EccD1 (Rv3877) of Mycobacterium tuberculosis H37Rv, cytoplasmic ubiquitin-like domain, residues 21-109, the same DNA fragment as in m1, placed after MBP; also called MBP fusion protein; not shown: His6, N-terminal, cleaved; MBP, N-terminal, kept) ATTRVTILTGRRMTDLVLPAAVPMETYIDDTVAVLSEVLEDTPADVLGGFDFTAQGVWAFARPGSPPLKLDQSLDDAGVVDGSLLTLVS | – | binds
